The source of these data is publication PMC3226435, “Slice orientation and muscarinic acetylcholine receptor activation determine the involvement of N-methyl D-aspartate receptor subunit GluN2B in hippocampal area CA1 long-term depression” (Molecular Brain, 2011).

The assay deals with T1, N-methyl D-aspartate receptor subunit GluN2B (rat (endogenous in hippocampal slices), UniProt Q00960 27-1482).
T1 construct: NMDA receptor subunit GluN2B, endogenous in hippocampal slices of male Sprague-Dawley rats aged 14-21 days; Immunoprecipitated from the lysate with a rabbit polyclonal antibody against the GluN2B C-terminus; other NMDA receptor subunits may be present in the precipitate but were not examined; source: endogenous, lysate of rat hippocampal slices (RIPA buffer)
The assay is described as follows: co-IP; GluN2B immunoprecipitated with rabbit polyclonal anti-GluN2B C-terminal antibody on protein A beads from 500 ug RIPA lysate of rat hippocampal slices (sagittal control or 20 uM scopolamine for 2 hrs; untreated coronal or sagittal), overnight at 4°C, four washes in RIPA; Western blot for RasGRF1, RasGRF1 normalized to GluN2B. The settings on record: partners not purified. For orientation: In western blotting, separated proteins are transferred to a membrane and probed.

T1 sequence (Q00960 27-1482): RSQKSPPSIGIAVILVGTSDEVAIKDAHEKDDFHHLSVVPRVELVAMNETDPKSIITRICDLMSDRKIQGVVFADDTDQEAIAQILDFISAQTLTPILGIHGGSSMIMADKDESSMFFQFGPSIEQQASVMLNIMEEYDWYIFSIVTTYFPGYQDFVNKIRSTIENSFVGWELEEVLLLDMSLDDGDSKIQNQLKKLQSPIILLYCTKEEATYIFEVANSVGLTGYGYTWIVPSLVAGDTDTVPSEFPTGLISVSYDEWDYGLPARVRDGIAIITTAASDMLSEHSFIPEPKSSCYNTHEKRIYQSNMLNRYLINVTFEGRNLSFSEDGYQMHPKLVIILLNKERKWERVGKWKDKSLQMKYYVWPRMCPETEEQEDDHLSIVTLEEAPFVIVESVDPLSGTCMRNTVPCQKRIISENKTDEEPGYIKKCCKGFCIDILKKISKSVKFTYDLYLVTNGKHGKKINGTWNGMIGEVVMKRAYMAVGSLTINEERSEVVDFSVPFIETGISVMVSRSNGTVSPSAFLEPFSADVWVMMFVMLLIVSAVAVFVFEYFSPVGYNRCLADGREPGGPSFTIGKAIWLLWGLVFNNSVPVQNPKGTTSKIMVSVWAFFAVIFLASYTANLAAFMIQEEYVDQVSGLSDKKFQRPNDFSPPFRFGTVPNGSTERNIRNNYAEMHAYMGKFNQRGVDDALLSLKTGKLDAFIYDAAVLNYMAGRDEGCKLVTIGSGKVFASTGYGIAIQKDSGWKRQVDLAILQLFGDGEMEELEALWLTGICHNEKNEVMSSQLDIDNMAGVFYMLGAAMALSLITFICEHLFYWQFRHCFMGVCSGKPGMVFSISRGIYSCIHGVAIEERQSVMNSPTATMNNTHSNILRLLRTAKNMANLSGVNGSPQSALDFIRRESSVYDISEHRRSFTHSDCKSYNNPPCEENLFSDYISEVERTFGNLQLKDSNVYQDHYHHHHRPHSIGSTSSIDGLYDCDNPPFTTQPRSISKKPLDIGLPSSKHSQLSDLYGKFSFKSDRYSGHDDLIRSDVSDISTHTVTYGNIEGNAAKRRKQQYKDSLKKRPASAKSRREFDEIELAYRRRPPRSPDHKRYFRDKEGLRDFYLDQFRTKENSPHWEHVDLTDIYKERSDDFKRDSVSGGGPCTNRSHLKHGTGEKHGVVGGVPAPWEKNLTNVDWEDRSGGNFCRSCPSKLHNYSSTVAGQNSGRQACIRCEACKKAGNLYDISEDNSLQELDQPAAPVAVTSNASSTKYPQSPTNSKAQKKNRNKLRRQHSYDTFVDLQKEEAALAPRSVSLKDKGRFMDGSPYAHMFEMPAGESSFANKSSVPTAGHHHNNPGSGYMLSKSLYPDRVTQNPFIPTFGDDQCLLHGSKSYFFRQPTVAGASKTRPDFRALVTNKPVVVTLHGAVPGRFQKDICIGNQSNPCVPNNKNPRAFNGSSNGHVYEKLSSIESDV

B1: Ras Guanine nucleotide Release Factor 1 (natural protein, rat (endogenous in hippocampal slices), UniProt P28818 1-1244, looked up)
chain: MQKAIRLNDGHVVSLGLLAQRDGTRKGYLSKRSSDNPKWQTKWFALLQNLLFYFESDSSSRPSGLYLLEGSICKRMPSPKRGTSSKESDKQHHYFTVNFSNDSQKSLELRTDDSKDCDEWVAAIARASYKILATEHEALMQKYLHLLQVVETEKTVAKQLRQQLEDGEVEIERLKAEIANLIKDNERIQSNQLVAPEDEDSDIKKIKKVQSFLRGWLCRRKWKNIIQDYIRSPHADSMRKRNQVVFSMLEAEAEYVQQLHILVNNFLRPLRMAASSKKPPITHDDVSSIFLNSETIMFLHQIFYQGLKARIASWPTLVLADLFDILLPMLNIYQEFVRNHQYSLQILAHCKQNRDFDKLLKQYEAKPDCEERTLETFLTYPMFQIPRYILTLHELLAHTPHEHVERNSLDYAKSKLEELSRVMHDEVSETENIRKNLAIERMITEGCEILLDTSQTFVRQGSLIQVPMSEKGKINKGRLGSLSLKKEGERQCFLFSKHLIICTRGSGSKLHLTKNGVISLIDCTLLDDPENMDDDGKGQEVDHLDFKIWVEPKDSPPFTVILVASSRQEKAAWTSDIIQCVDNIRCNGLMMNAFEENSKVTVPQMIKSDASLYCDDVDIRFSKTMNSCKVLQIRYASVERLLERLTDLRFLSIDFLNTFLHSYRVFTDAVVVLDKLISIYKKPITAIPARSLELLFSSSHNTKLLYGDAPKSPRASRKFSSPPPLAIGTSSPVRRRKLSLNIPIITGGKALELASLGCPSDGYTNIHSPISPFGKTTLDTSKLCVASSLTRTPEEIDMTTLEESSGFRKPTSDILKEESDDDQSDVDDTEVSPPTPKSFRNRITQEFPLFNYNSGIMMTCRDLMDSNRSPLSATSAFAIATAGANESPANKEIYRRMSLANTGYSSDQRNIDKEFVIRRAATNRVLNVLRHWVTKHSQDFETDDLLKYKVICFLEEVMHDPDLLPQERKAAANIMRTLTQEEITENHSMLDELLLMTEGVKTEPFENHSAMEIAEQLTLLDHLVFKSIPYEEFFGQGWMKADKNERTPYIMKTTRHFNHISNLIASEILRNEEVSARASTIEKWVAVADICRCLHNYNAVLEITSSINRSAIFRLKKTWLKVSKQTKSLFDKLQKLVSSDGRFKNLRETLRNCDPPCVPYLGMYLTDLAFLEEGTPNYTEDGLVNFSKMRMISHIIREIRQFQQTTYKIEPQPKVTQYLVDETFVLDDESLYEASLRIEPKLPT
notes: RasGRF1, Ras-specific guanine nucleotide exchange factor, endogenous in hippocampal slices of male Sprague-Dawley rats aged 14-21 days; Detected in the GluN2B immunoprecipitate by Western blot with a rabbit polyclonal anti-RasGRF1 antibody; also called RasGRF1; source: endogenous, lysate of rat hippocampal slices (RIPA buffer)
For B1, the “ratio of normalized RasGRF1 in GluN2B immunoprecipitate, coronal/sagittal” value worked out at 1.33 ± 0.105 and the “ratio of normalized RasGRF1 in GluN2B immunoprecipitate, scopolamine/control” value amounted to 2.04 ± 0.451.
